# Test results reported in patent US20260042834A1, “ANTI-CORTICOTROPIN-RELEASING HORMONE ANTIBODIES AND POLYCYSTIC OVARY SYNDROME” (HBM ALPHA THERAPEUTICS, INC., priority 2022, published 2026).
# Experiments:
# human CRHR2 = assay: CRH-induced luciferase reporter blocking assay, CHO-CRE-hCRHR2 cells; type: cell-based
# Protocol: (§1) To create CHO-CRE-hCRHR1, -hCRHR2, -mCRHR1, and -mCRHR2 reporter cell lines, pcDNA3.1-hCRHR1, -hCRHR2, -mCRHR1, and -mCRHR2 were introduced into CHO-CRE cells established above by electroporation as described above. Selection antibiotics hygromycin at 500 μg/ml and G418 at 1,000 μg/ml were employed. Individual established stable cell lines were characterized by both CRH and forskolin stimulation.
# Activated GPCR proteins increase production of the intracellular cAMP. CHO-CRE-human CRHR1 stable clone 11 was generated by introduction of pcDNA3.1-human CRHR1 under the selection of G418 and hygromycin. Human CRHR1 expression in CHO-CRE-hCRHR1 Clone 11 was confirmed by flow cytometry (data not shown). To further validate that the cell line was functional, CHO-CRE-hCRHR1 Clone 11 cells were treated with forskolin and CRH peptide. […] Subsequently CHO-CRE-hCRHR2 Clone 32, -mCRHR1 Clone 22, and -mCRHR2 Clone 8 cell lines were established using similar methodology and validated with CRH treatment (data not shown).
# Blocking CRHR1 by small molecules or neutralization of CRH peptide can reduce luciferase expression if the CRH-CRHR1 system works in CHO-CRE-hCRHR1 cells. Antalarmin, a small molecule CRHR1 antagonist, blocked CRH-mediated luciferase expression in CHO-CRE-hCRHR1 Clone 11 (data not shown). Furthermore, sheep anti-CRH polyclonal antibody reduced CRH-mediated luciferase expression in these cells (data not shown). Likewise, sheep anti-CRH polyclonal antibody blocked CRH-mediated luciferase expression in CHO-CRE-hCRHR2, CHO-CRE-mCRHR1, and CHO-CRE-mCRHR2 cells (data not shown).
# (§2) Cells were digested by trypsin-EDTA (Life technologies, Cat #:12604-013), centrifuged at 1,000 rpm for 5 min, resuspended in growth medium, counted using a cell counter, seeded at a concentration of 5,000 cells per 100 μl in 96-well flat plates, and incubated overnight. 50 μl of 4× serially diluted antibodies was added (8 points, 1/4 diluted by growth medium) to plates containing CHO-CRE-hCRHR1 cells, and 50 μl of 4×CRH (4× is 2 nM, final is 0.5 nM) was added. Similarly, 4×CRH (4× is 0.4 nM, final is 0.1 nM) was added to CHO-CRE-hCRHR2 cells and CHO-CRE-mCRHR1 cells, and 4×CRH (4× is 20 nM, final is 5 nM) was added to CHO-CRE-mCRHR2 cells. Next, plates were incubated 4-6 hours at 37° C. in a CO2 incubator. 60 μl of culture medium was removed, to which was added 60 μl of Bio-Glo luciferase, followed by incubation for 10 min at RT. Plates were read in a luciferase plate reader (EnVision, PerkinElmer).
# mouse CRHR2 = assay: CRH-induced luciferase reporter blocking assay, CHO-CRE-mCRHR2 cells; type: cell-based
# Protocol: as §1, with “stimulation. […]” for “stimulation.”
# as §2
# [1] = CHO-CRE-hCRHR2 cells, 0.1 nM CRH
Molecule,IC50 (human CRHR2; [1]),"IC50 (mouse CRHR2; CHO-CRE-mCRHR2 cells, 5 nM CRH)","IC50 (human CRHR2; Table 9, hCRHR2)","IC50 (mouse CRHR2; Table 9, mCrhr2)"
"PR302029: humanized variant of Series 5 mAb PR301777; VH SEQ ID NO: 255, VL SEQ ID NO: 310 (antibody, V domains shown, PR302029 VH, PR302031 VH, PR302034 VH; PR302029 VL, PR302036 VL, PR302043 VL, PR302050 VL, PR302064 VL) VH: EVQLVESGGGLVQPGGSLRLSCAASGFTFSNYWMNWVRQAPGKGLEWVGEIRLKSNNYATHYAESVKGRFTISRDDSKNSLYLQMNSLKTEDTAVYYCTVGTLVYWGQGTLVTVSS VL: DIVLTQSPDSLAVSLGERATINCRASQSVSTSTYNYMHWFQQKPGQPPKLLIKFASNLESGVPDRFSGSGSGTDFTLTISSLQAEDTAVYYCQHSWEIPYTFGQGTKLEIK",5.75 nM,8.08 nM,–,–
"PR302034: humanized variant of Series 5 mAb PR301777; VH SEQ ID NO: 255, VL SEQ ID NO: 312 (antibody, V domains shown, PR302029 VH, PR302031 VH, PR302034 VH; PR302034 VL, PR302041 VL, PR302048 VL, PR302055 VL, PR302069 VL) VH: EVQLVESGGGLVQPGGSLRLSCAASGFTFSNYWMNWVRQAPGKGLEWVGEIRLKSNNYATHYAESVKGRFTISRDDSKNSLYLQMNSLKTEDTAVYYCTVGTLVYWGQGTLVTVSS VL: DIQLTQSPSSLSASVGDRVTITCRASQSVSTSTYNYMHWFQQKPGKAPKLLIKFASNLESGVPSRFSGSGSGTDFTLTISSLQPEDTATYYCQHSWEIPYTFGQGTKLEIK",10.2 nM,29.3 nM,–,–
"PR302041: humanized variant of Series 5 mAb PR301777; VH SEQ ID NO: 256, VL SEQ ID NO: 312 (antibody, V domains shown, PR302036 VH, PR302038 VH, PR302041 VH; PR302034 VL, PR302041 VL, PR302048 VL, PR302055 VL, PR302069 VL) VH: EMQLVESGGGLVQPGGSLRLSCAASGFTFSNYWMNWVRQAPGKGLEWVAEIRLKSNNYATHYAESVKGRFTISRDDSKSSVYLQMNSLKTEDTAVYYCTVGTLVYWGQGTLVTVSS VL: DIQLTQSPSSLSASVGDRVTITCRASQSVSTSTYNYMHWFQQKPGKAPKLLIKFASNLESGVPSRFSGSGSGTDFTLTISSLQPEDTATYYCQHSWEIPYTFGQGTKLEIK",4.92 nM,12.4 nM,–,–
"PR302043: humanized variant of Series 5 mAb PR301777; VH SEQ ID NO: 257, VL SEQ ID NO: 310 (antibody, V domains shown, PR302043 VH, PR302045 VH, PR302048 VH; PR302029 VL, PR302036 VL, PR302043 VL, PR302050 VL, PR302064 VL) VH: EVQLVESGGGLVQPGGSLKLSCAASGFTFSNYWMNWVRQASGKGLEWVGEIRLKSNNYATHYAESVKGRFTISRDDSKNTAYLQMNSLKTEDTAVYYCTRGTLVYWGQGTLVTVSS VL: DIVLTQSPDSLAVSLGERATINCRASQSVSTSTYNYMHWFQQKPGQPPKLLIKFASNLESGVPDRFSGSGSGTDFTLTISSLQAEDTAVYYCQHSWEIPYTFGQGTKLEIK",5.25 nM,6.17 nM,–,–
"PR302036: humanized variant of Series 5 mAb PR301777; VH SEQ ID NO: 256, VL SEQ ID NO: 310 (antibody, V domains shown, PR302036 VH, PR302038 VH, PR302041 VH; PR302029 VL, PR302036 VL, PR302043 VL, PR302050 VL, PR302064 VL) VH: EMQLVESGGGLVQPGGSLRLSCAASGFTFSNYWMNWVRQAPGKGLEWVAEIRLKSNNYATHYAESVKGRFTISRDDSKSSVYLQMNSLKTEDTAVYYCTVGTLVYWGQGTLVTVSS VL: DIVLTQSPDSLAVSLGERATINCRASQSVSTSTYNYMHWFQQKPGQPPKLLIKFASNLESGVPDRFSGSGSGTDFTLTISSLQAEDTAVYYCQHSWEIPYTFGQGTKLEIK",2.21 nM,5.42 nM,–,–
"PR302048: humanized variant of Series 5 mAb PR301777; VH SEQ ID NO: 257, VL SEQ ID NO: 312 (antibody, V domains shown, PR302043 VH, PR302045 VH, PR302048 VH; PR302034 VL, PR302041 VL, PR302048 VL, PR302055 VL, PR302069 VL) VH: EVQLVESGGGLVQPGGSLKLSCAASGFTFSNYWMNWVRQASGKGLEWVGEIRLKSNNYATHYAESVKGRFTISRDDSKNTAYLQMNSLKTEDTAVYYCTRGTLVYWGQGTLVTVSS VL: DIQLTQSPSSLSASVGDRVTITCRASQSVSTSTYNYMHWFQQKPGKAPKLLIKFASNLESGVPSRFSGSGSGTDFTLTISSLQPEDTATYYCQHSWEIPYTFGQGTKLEIK",13.9 nM,6.32 nM,–,–

# These reach a lower IC50 (human CRHR2; [1]). Values come first.
IC50 (human CRHR2; [1]),"IC50 (mouse CRHR2; CHO-CRE-mCRHR2 cells, 5 nM CRH)","IC50 (human CRHR2; Table 9, hCRHR2)","IC50 (mouse CRHR2; Table 9, mCrhr2)",Molecule
0.293 nM,0.82 nM,–,–,"PR302341-8: humanized variant of Series 10 mAb PR302341; VH SEQ ID NO: 281, VL SEQ ID NO: 340 (antibody, V domains shown, PR302341-10 VH, PR302341-11 VH, PR302341-12 VH, PR302341-14 VH,PR302341-67 VH, PR302341-68 VH, PR302341-69 VH, PR302341-7 VH,PR302341-8 VH, PR302341-9 VH; PR302341-19 VL, PR302341-20 VL, PR302341-21 VL, PR302341-22 VL,PR302341-23 VL, PR302341-28 VL, PR302341-29 VL, PR302341-2 VL,PR302341-41 VL, PR302341-55 VL, PR302341-56 VL, PR302341-57 VL,PR302341-) VH: QVQLVQSGAEVKKPGASVKVSCKASGYTFTDYFMKWVRQAPGQGLEWMGVINPNNGDIFYNQKFKGRVTMTVDKSTSTAYMELSSLRSEDTAVYYCARGTDRALFAYWGQGTLVTVSS VL: DVVMTQSPLSLPVTLGQPASISCRSGQSIVHSDGNTYLEWYQQRPGQSPRLLIYKVSNRFSGVPDRFSGSGSGTDFTLKISRVEAEDLGVYYCFQGSHIPWTFGGGTKVEIK"
0.178 nM,0.673 nM,–,–,"PR302341-19: humanized variant of Series 10 mAb PR302341; VH SEQ ID NO: 282, VL SEQ ID NO: 340 (antibody, V domains shown, PR302341-13 VH, PR302341-19 VH; PR302341-19 VL, PR302341-20 VL, PR302341-21 VL, PR302341-22 VL,PR302341-23 VL, PR302341-28 VL, PR302341-29 VL, PR302341-2 VL,PR302341-41 VL, PR302341-55 VL, PR302341-56 VL, PR302341-57 VL,PR302341-) VH: QVQLVQSGAEVKKPGASVKVSCKASGYTFTDYFMKWVRQAPGQGLEWMGVINPNNGDIFYNQKFKGRVTMTRDTSTSTVYMELSSLRSEDTAVYYCARGTDRALFAYWGQGTLVTVSS VL: DVVMTQSPLSLPVTLGQPASISCRSGQSIVHSDGNTYLEWYQQRPGQSPRLLIYKVSNRFSGVPDRFSGSGSGTDFTLKISRVEAEDLGVYYCFQGSHIPWTFGGGTKVEIK"
0.143 nM,1.22 nM,0.83 nM,1.44 nM,"PR302341-10: humanized variant of Series 10 mAb PR302341; VH SEQ ID NO: 281, VL SEQ ID NO: 336 (antibody, V domains shown, PR302341-10 VH, PR302341-11 VH, PR302341-12 VH, PR302341-14 VH,PR302341-67 VH, PR302341-68 VH, PR302341-69 VH, PR302341-7 VH,PR302341-8 VH, PR302341-9 VH; PR302341-10 VL, PR302341-24 VL, PR302341-26 VL, PR302341-43 VL,PR302341-44 VL, PR302341-45 VL, PR302341-4 VL) VH: QVQLVQSGAEVKKPGASVKVSCKASGYTFTDYFMKWVRQAPGQGLEWMGVINPNNGDIFYNQKFKGRVTMTVDKSTSTAYMELSSLRSEDTAVYYCARGTDRALFAYWGQGTLVTVSS VL: DVVMTQTPLSSPVTLGQPASISCRSGQSIVHSDGNTYLEWYQQRPGQPPRLLIYKVSNRFSGVPDRFSGSGAGTDFTLKISRVEAEDLGVYYCFQGSHIPWTFGGGTKVEIK"
